B1: His-GIV-CT: His-GIV-CT (aa 1660-1870, containing its GEF motif) (protein)
chain: ISETLESRHHKIKTGSPGSEVVTLQQFLEESNKLTSVQIKSSSQENLLDEVMKSLSVSSDFLGKDKPVSCGLARSVSGKTPGDFYDRRTTKPEFLRPGPRKTEDTYFISSAGKPTPGTQGKIKLVKESSLSRQSKDSNPYATLPRASSVISTAEGTTRRTSIHDFLTKDSRLPISVDSPPAAADSNTTAASNVDKVQESRNSKSRSREQQS
modifications: left off: small tags and cut ends
B2: DAPLE-V2-WT: short isoform of DAPLE (SEQ ID NO: 23, 552 aa) expressed in cells (protein, listed as Homo sapiens)
chain: MSVLSPGDLKPKRGSPHRGSLDRTDASTDLAMRSWPSELGSRTCSTSATTTAPSNSTPIARHPGRTKGYNSDDNLCEPSLEFEVPNHRQYVSRPSSLESSRNTSSNSSPLNLKGSSEQLHGRSESFSSEDLIPSRDLATLPREASTPGRNALGRHEYPLPRNGPLPQEGAQKRGTAPPYVGVRPCSASPSSEMVTLEEFLEESNRSSPTHDTPSCRDDLLSDYFRKASDPPAIGGQPGPPAKKEGAKMPTNFVAPTVKMAAPTSEGRPLKPGQYVKPNFRLTEAEAPPSVAPRQAQPPQSLSLGRPRQAPVPPASHAPASRSASLSRAFSLASADLLRASGPEACKQESPQKLGAPEALGGRETGSHTLQSPAPPSSHSLARERTPLVGKAGSSCQGPGPRSRPLDTRRFSLAPPKEERLAPLHQSATAPAIATAGAGAAAAGSGSNSQLLHFSPAAAPAARTKPKAPPRSGEVATITPVRAGLSLSEGDGVPGQGCSEGLPAKSPGRSPDLAPHLGRALEDCSRGSVSKSSPASPEPGGDPQTVWYEYGCV
modifications: myc tag
B3: DAPLE-V2-FA: DAPLE-V2 with F194A mutation disrupting Gαi3 binding, expressed in cells (protein)
chain: MSVLSPGDLKPKRGSPHRGSLDRTDASTDLAMRSWPSELGSRTCSTSATTTAPSNSTPIARHPGRTKGYNSDDNLCEPSLEFEVPNHRQYVSRPSSLESSRNTSSNSSPLNLKGSSEQLHGRSESFSSEDLIPSRDLATLPREASTPGRNALGRHEYPLPRNGPLPQEGAQKRGTAPPYVGVRPCSASPSSEMVTLEEALEESNRSSPTHDTPSCRDDLLSDYFRKASDPPAIGGQPGPPAKKEGAKMPTNFVAPTVKMAAPTSEGRPLKPGQYVKPNFRLTEAEAPPSVAPRQAQPPQSLSLGRPRQAPVPPASHAPASRSASLSRAFSLASADLLRASGPEACKQESPQKLGAPEALGGRETGSHTLQSPAPPSSHSLARERTPLVGKAGSSCQGPGPRSRPLDTRRFSLAPPKEERLAPLHQSATAPAIATAGAGAAAAGSGSNSQLLHFSPAAAPAARTKPKAPPRSGEVATITPVRAGLSLSEGDGVPGQGCSEGLPAKSPGRSPDLAPHLGRALEDCSRGSVSKSSPASPEPGGDPQTVWYEYGCV
modifications: left off: small tags and cut ends

Tests used:
[1] = biological target: T1, GST-Gαi3 (Rattus norvegicus, UniProt P08753); assay: Competition with His-DAPLE-CT for binding to GST-Gαi3 (pulldown)
T1 construct: made in house; host or cells: E. coli BL21 (DE3)
Description: Purified GST-Gαi3 or GST alone (5 μg) were immobilized on glutathione-Sepharose beads and incubated with binding buffer [50 mM Tris-HCl (pH 7.4), 100 mM NaCl, 0.4% (v:v) Nonidet P-40, 10 mM MgCl2, 5 mM EDTA, 30 μM GDP, 2 mM DTT, protease inhibitor mixture] for 90 min at room temperature as described before (Garcia-Marcos et al, 2011a; Ghosh et al, 2010; Ghosh et al, 2008; Lin et al, 2011). Lysates (˜250 μg) of Cos7 cells expressing appropriate myc-DAPLE constructs or purified His-DAPLE-CT (aa 1650-2028) protein (3 μg) were added to each tube, and binding reactions were carried out for 4 h at 4° C. with constant tumbling in binding buffer [50 mM Tris-HCl (pH 7.4), 100 mM NaCl, 0.4% (v:v) Nonidet P-40, 10 mM MgCl2, 5 mM EDTA, 30 μM GDP, 2 mM DTT]. Beads were washed (4×) with 1 mL of wash buffer [4.3 mM Na2HPO4, 1.4 mM KH2PO4 (pH 7.4), 137 mM NaCl, 2.7 mM KCl, 0.1% (v:v) Tween 20, 10 mM MgCl2, 5 mM EDTA, 30 μM GDP, 2 mM DTT] and boiled in Laemmli's sample buffer. In some experiments the ‘active’ conformation of the G protein was stabilized by replacing GDP in the binding and wash buffers with 30 μM GTPγS or a mixture of 30 μM GDP/30 μM AlCl3/10 mM NaF. Immunoblot quantification was performed by infrared imaging following the manufacturer's protocols using an Odyssey imaging system (Li-Cor Biosciences).

[2] = system: DLD1 cells; assay: Anchorage-dependent tumor growth assay; type: cell-based, human; details: DLD1 cells stably expressing constructs, 2-3 weeks
Description: Anchorage-dependent growth was monitored on solid (plastic) surface as described previously (Franken et al, 2006). Briefly, anchorage-dependent growth was monitored on solid (plastic) surface. Approximately ˜1000 DLD1 cells stably expressing various DAPLE constructs were plated in 6-well plates and incubated in 5% CO2 at 37° C. for ˜2 weeks in 0.2% FBS growth media. Colonies were then stained with 0.005% crystal violet for 1 h. The remaining DLD1 cells were lysed and analyzed by immunoblotting to confirm DAPLE construct expression. Each experiment was analyzed in triplicate.

[3] = system: NIH3T3 cells; assay: 3D spheroid matrigel invasion assay; type: cell-based; details: in response to Wnt5a
Description: NIH3T3 cell invasion assay in 3D culture was performed according to the manufacturer's protocol (Trevigen, Cultrex 3D Spheroid BME Cell Invasion Assay, catalog #3500-096-K). Briefly, non-invasive NIH3T3 cells (˜3000 cells) transfected with empty vector (control) or myc-DAPLEconstructs were incubated first in the Spheroid Formation extracellular matrix (ECM) containing 0.2% FBS for 3 days. Invasion matrix was then added and layered on top with media containing FBS. […] Photographs were analyzed and pseudocolored by Image J to reflect cell density.

[4] = system: β-Catenin/TCF/LEF pathway in DLD1 7TGP cells; assay: β-Catenin reporter assay (7TGP); type: cell-based, human; details: stable expression, starved and stimulated with Wnt5a, versus vector control
Description: These assays were carried out using the well-established reporter 7×Tcf-eGFP (7TGP) (Fuerer & Nusse, 2010). Stable cells lines expressing this reporter were generated by lentiviral transduction and subsequent selection using standard procedures. Lentiviral infection and selection were performed according to standard procedures. Briefly, 10 cm plates DLD1 cells at 70% confluency were incubated with media containing 8 μg/mL polybrene and 10 μl of lentivirus for 6 h. After 24 hours post infection, selection of puromycin-resistant clones was initiated by adding the antibiotic at 2 μg/ml final concentration. The resultant DLD1-7TGP stable cells were subsequently transfected with various myc-DAPLE constructs and selected for G418 resistance as described earlier in methods. The DLD1-7TGP cells stably expressing myc-DAPLE were incubated overnight at 0.2% FBS, analyzed by fluorescence microscopy, and photographed prior to lysis. Whole cell lysates samples were then boiled in Laemmli's sample buffer and GFP protein expression was monitored by immunoblotting.

T1 sequence (P08753 whole entry): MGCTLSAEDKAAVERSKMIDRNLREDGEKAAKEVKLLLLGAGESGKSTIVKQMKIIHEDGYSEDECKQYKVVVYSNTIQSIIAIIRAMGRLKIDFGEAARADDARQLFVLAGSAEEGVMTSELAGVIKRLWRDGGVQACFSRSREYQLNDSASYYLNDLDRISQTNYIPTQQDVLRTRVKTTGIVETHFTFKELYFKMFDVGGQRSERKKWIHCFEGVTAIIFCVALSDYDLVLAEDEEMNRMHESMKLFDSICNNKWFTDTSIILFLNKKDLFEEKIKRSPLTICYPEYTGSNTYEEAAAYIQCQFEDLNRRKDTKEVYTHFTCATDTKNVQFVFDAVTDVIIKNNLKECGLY

Molecule	competition with His-DAPLE-CT for binding to GST-Gαi3 [1]	adherent colonies per well (tumor growth) [2]	invasion of matrigel by spheroids [3]	eGFP signal (Wnt transcriptional activity) [4]
KB-752: synthetic GEF peptide similar to the GBA motif (SRVTWYDFLMEDTKSR) [reference compound]	competed			
B1	competed			
B2		can inhibit tumor growth	Neither the WT nor the FA mutant of DAPLE-V2 could trigger invasion	showed inhibition of eGFP
B3			Neither the WT nor the FA mutant of DAPLE-V2 could trigger invasion	not

— patent US10358467B2, “Therapeutic targets for cancer progression” (The Regents of the University of California, priority 2015, dated 2019)
